These results are taken from patent US20140087995A1 (published 2014).

In general, IC50 refers to the point on the concentration scale where inhibition reaches its midpoint.

Numbered stars: 1 amine (or outer) side, 2 acyl side, 3 side chain; on linkers, the order of the positions; unused ones are H or OH. Bridge positions count the residues as written; N and C are the ends. Side chains are listed from the residue outwards. Ends that are not written are not given here. * marks the point of attachment. C20 diacid = O=C(O)CCCCCCCCCCCCCCCCCCC(=O)*; γGlu = O=C(O)[C@H](CCC(=O)[*:2])N[*:1]

B1: N^ε1-[(4S)-4-carboxy-4-(19-carboxynonadecanoylamino)butanoyl]-[Arg14,Arg17,Pro21,Pro27,Pro31]-h-amylin (peptide)
peptide: K([γGlu-C20 diacid])CNTATCATQRLARFLRHSSPNFGAIPSSTPVGSNTY-NH2
modifications: disulfide 2-7; N-terminus assumed
SMILES: CC[C@H](C)[C@H](NC(=O)[C@H](C)NC(=O)CNC(=O)[C@H](Cc1ccccc1)NC(=O)[C@H](CC(N)=O)NC(=O)[C@@H]1CCCN1C(=O)[C@H](CO)NC(=O)[C@H](CO)NC(=O)[C@H](Cc1c[nH]cn1)NC(=O)[C@H](CCCNC(=N)N)NC(=O)[C@H](CC(C)C)NC(=O)[C@H](Cc1ccccc1)NC(=O)[C@H](CCCNC(=N)N)NC(=O)[C@H](C)NC(=O)[C@H](CC(C)C)NC(=O)[C@H](CCCNC(=N)N)NC(=O)[C@H](CCC(N)=O)NC(=O)[C@@H](NC(=O)[C@H](C)NC(=O)[C@@H]1CSSC[C@H](NC(=O)[C@@H](N)CCCCNC(=O)CC[C@H](NC(=O)CCCCCCCCCCCCCCCCCCC(=O)O)C(=O)O)C(=O)N[C@@H](CC(N)=O)C(=O)N[C@@H]([C@@H](C)O)C(=O)N[C@@H](C)C(=O)N[C@@H]([C@@H](C)O)C(=O)N1)[C@@H](C)O)C(=O)N1CCC[C@H]1C(=O)N[C@@H](CO)C(=O)N[C@@H](CO)C(=O)N[C@H](C(=O)N1CCC[C@H]1C(=O)N[C@H](C(=O)NCC(=O)N[C@@H](CO)C(=O)N[C@@H](CC(N)=O)C(=O)N[C@H](C(=O)N[C@@H](Cc1ccc(O)cc1)C(N)=O)[C@@H](C)O)C(C)C)[C@@H](C)O
notes: also called 63; compound 63
B2: N^ε1-[(4S)-4-carboxy-4-(19-carboxynonadecanoylamino)butanoyl]-[Arg17,Pro21,Pro27,Arg34]-h-amylin (peptide)
peptide: K([γGlu-C20 diacid])CNTATCATQRLANFLRHSSPNFGAIPSSTNVGRNTY-NH2
modifications: disulfide 2-7; N-terminus assumed
SMILES: CC[C@H](C)[C@H](NC(=O)[C@H](C)NC(=O)CNC(=O)[C@H](Cc1ccccc1)NC(=O)[C@H](CC(N)=O)NC(=O)[C@@H]1CCCN1C(=O)[C@H](CO)NC(=O)[C@H](CO)NC(=O)[C@H](Cc1c[nH]cn1)NC(=O)[C@H](CCCNC(=N)N)NC(=O)[C@H](CC(C)C)NC(=O)[C@H](Cc1ccccc1)NC(=O)[C@H](CC(N)=O)NC(=O)[C@H](C)NC(=O)[C@H](CC(C)C)NC(=O)[C@H](CCCNC(=N)N)NC(=O)[C@H](CCC(N)=O)NC(=O)[C@@H](NC(=O)[C@H](C)NC(=O)[C@@H]1CSSC[C@H](NC(=O)[C@@H](N)CCCCNC(=O)CC[C@H](NC(=O)CCCCCCCCCCCCCCCCCCC(=O)O)C(=O)O)C(=O)N[C@@H](CC(N)=O)C(=O)N[C@@H]([C@@H](C)O)C(=O)N[C@@H](C)C(=O)N[C@@H]([C@@H](C)O)C(=O)N1)[C@@H](C)O)C(=O)N1CCC[C@H]1C(=O)N[C@@H](CO)C(=O)N[C@@H](CO)C(=O)N[C@H](C(=O)N[C@@H](CC(N)=O)C(=O)N[C@H](C(=O)NCC(=O)N[C@@H](CCCNC(=N)N)C(=O)N[C@@H](CC(N)=O)C(=O)N[C@H](C(=O)N[C@@H](Cc1ccc(O)cc1)C(N)=O)[C@@H](C)O)C(C)C)[C@@H](C)O
notes: also called 79; compound 79
B3: N^ε1-[(4S)-4-carboxy-4-(19-carboxynonadecanoylamino)butanoyl]-[Arg17,Pro21,Pro27,His34]-h-amylin (peptide)
peptide: K([γGlu-C20 diacid])CNTATCATQRLANFLRHSSPNFGAIPSSTNVGHNTY-NH2
modifications: disulfide 2-7; N-terminus assumed
SMILES: CC[C@H](C)[C@H](NC(=O)[C@H](C)NC(=O)CNC(=O)[C@H](Cc1ccccc1)NC(=O)[C@H](CC(N)=O)NC(=O)[C@@H]1CCCN1C(=O)[C@H](CO)NC(=O)[C@H](CO)NC(=O)[C@H](Cc1c[nH]cn1)NC(=O)[C@H](CCCNC(=N)N)NC(=O)[C@H](CC(C)C)NC(=O)[C@H](Cc1ccccc1)NC(=O)[C@H](CC(N)=O)NC(=O)[C@H](C)NC(=O)[C@H](CC(C)C)NC(=O)[C@H](CCCNC(=N)N)NC(=O)[C@H](CCC(N)=O)NC(=O)[C@@H](NC(=O)[C@H](C)NC(=O)[C@@H]1CSSC[C@H](NC(=O)[C@@H](N)CCCCNC(=O)CC[C@H](NC(=O)CCCCCCCCCCCCCCCCCCC(=O)O)C(=O)O)C(=O)N[C@@H](CC(N)=O)C(=O)N[C@@H]([C@@H](C)O)C(=O)N[C@@H](C)C(=O)N[C@@H]([C@@H](C)O)C(=O)N1)[C@@H](C)O)C(=O)N1CCC[C@H]1C(=O)N[C@@H](CO)C(=O)N[C@@H](CO)C(=O)N[C@H](C(=O)N[C@@H](CC(N)=O)C(=O)N[C@H](C(=O)NCC(=O)N[C@@H](Cc1c[nH]cn1)C(=O)N[C@@H](CC(N)=O)C(=O)N[C@H](C(=O)N[C@@H](Cc1ccc(O)cc1)C(N)=O)[C@@H](C)O)C(C)C)[C@@H](C)O
notes: also called 77; compound 77
B4: N^ε1-[(4S)-4-carboxy-4-(19-carboxynonadecanoylamino)butanoyl]-[Arg14,Arg17,Pro21,Pro27,Pro34]-h-amylin (peptide)
peptide: K([γGlu-C20 diacid])CNTATCATQRLARFLRHSSPNFGAIPSSTNVGPNTY-NH2
modifications: disulfide 2-7; N-terminus assumed
SMILES: CC[C@H](C)[C@H](NC(=O)[C@H](C)NC(=O)CNC(=O)[C@H](Cc1ccccc1)NC(=O)[C@H](CC(N)=O)NC(=O)[C@@H]1CCCN1C(=O)[C@H](CO)NC(=O)[C@H](CO)NC(=O)[C@H](Cc1c[nH]cn1)NC(=O)[C@H](CCCNC(=N)N)NC(=O)[C@H](CC(C)C)NC(=O)[C@H](Cc1ccccc1)NC(=O)[C@H](CCCNC(=N)N)NC(=O)[C@H](C)NC(=O)[C@H](CC(C)C)NC(=O)[C@H](CCCNC(=N)N)NC(=O)[C@H](CCC(N)=O)NC(=O)[C@@H](NC(=O)[C@H](C)NC(=O)[C@@H]1CSSC[C@H](NC(=O)[C@@H](N)CCCCNC(=O)CC[C@H](NC(=O)CCCCCCCCCCCCCCCCCCC(=O)O)C(=O)O)C(=O)N[C@@H](CC(N)=O)C(=O)N[C@@H]([C@@H](C)O)C(=O)N[C@@H](C)C(=O)N[C@@H]([C@@H](C)O)C(=O)N1)[C@@H](C)O)C(=O)N1CCC[C@H]1C(=O)N[C@@H](CO)C(=O)N[C@@H](CO)C(=O)N[C@H](C(=O)N[C@@H](CC(N)=O)C(=O)N[C@H](C(=O)NCC(=O)N1CCC[C@H]1C(=O)N[C@@H](CC(N)=O)C(=O)N[C@H](C(=O)N[C@@H](Cc1ccc(O)cc1)C(N)=O)[C@@H](C)O)C(C)C)[C@@H](C)O
notes: also called 65; compound 65
B5: N^ε1-[(4S)-4-carboxy-4-(19-carboxynonadecanoylamino)butanoyl]-[Arg17,Pro21,Pro27,Glu35]-h-amylin (peptide)
peptide: K([γGlu-C20 diacid])CNTATCATQRLANFLRHSSPNFGAIPSSTNVGSETY-NH2
modifications: disulfide 2-7; N-terminus assumed
SMILES: CC[C@H](C)[C@H](NC(=O)[C@H](C)NC(=O)CNC(=O)[C@H](Cc1ccccc1)NC(=O)[C@H](CC(N)=O)NC(=O)[C@@H]1CCCN1C(=O)[C@H](CO)NC(=O)[C@H](CO)NC(=O)[C@H](Cc1c[nH]cn1)NC(=O)[C@H](CCCNC(=N)N)NC(=O)[C@H](CC(C)C)NC(=O)[C@H](Cc1ccccc1)NC(=O)[C@H](CC(N)=O)NC(=O)[C@H](C)NC(=O)[C@H](CC(C)C)NC(=O)[C@H](CCCNC(=N)N)NC(=O)[C@H](CCC(N)=O)NC(=O)[C@@H](NC(=O)[C@H](C)NC(=O)[C@@H]1CSSC[C@H](NC(=O)[C@@H](N)CCCCNC(=O)CC[C@H](NC(=O)CCCCCCCCCCCCCCCCCCC(=O)O)C(=O)O)C(=O)N[C@@H](CC(N)=O)C(=O)N[C@@H]([C@@H](C)O)C(=O)N[C@@H](C)C(=O)N[C@@H]([C@@H](C)O)C(=O)N1)[C@@H](C)O)C(=O)N1CCC[C@H]1C(=O)N[C@@H](CO)C(=O)N[C@@H](CO)C(=O)N[C@H](C(=O)N[C@@H](CC(N)=O)C(=O)N[C@H](C(=O)NCC(=O)N[C@@H](CO)C(=O)N[C@@H](CCC(=O)O)C(=O)N[C@H](C(=O)N[C@@H](Cc1ccc(O)cc1)C(N)=O)[C@@H](C)O)C(C)C)[C@@H](C)O
notes: also called 27; compound 27
B6: N^ε1-[(4S)-4-carboxy-4-(19-carboxynonadecanoylamino)butanoyl]-[Arg14,Arg17,Pro21,Pro27]-h-amylin (peptide)
peptide: K([γGlu-C20 diacid])CNTATCATQRLARFLRHSSPNFGAIPSSTNVGSNTY-NH2
modifications: disulfide 2-7; N-terminus assumed
SMILES: CC[C@H](C)[C@H](NC(=O)[C@H](C)NC(=O)CNC(=O)[C@H](Cc1ccccc1)NC(=O)[C@H](CC(N)=O)NC(=O)[C@@H]1CCCN1C(=O)[C@H](CO)NC(=O)[C@H](CO)NC(=O)[C@H](Cc1c[nH]cn1)NC(=O)[C@H](CCCNC(=N)N)NC(=O)[C@H](CC(C)C)NC(=O)[C@H](Cc1ccccc1)NC(=O)[C@H](CCCNC(=N)N)NC(=O)[C@H](C)NC(=O)[C@H](CC(C)C)NC(=O)[C@H](CCCNC(=N)N)NC(=O)[C@H](CCC(N)=O)NC(=O)[C@@H](NC(=O)[C@H](C)NC(=O)[C@@H]1CSSC[C@H](NC(=O)[C@@H](N)CCCCNC(=O)CC[C@H](NC(=O)CCCCCCCCCCCCCCCCCCC(=O)O)C(=O)O)C(=O)N[C@@H](CC(N)=O)C(=O)N[C@@H]([C@@H](C)O)C(=O)N[C@@H](C)C(=O)N[C@@H]([C@@H](C)O)C(=O)N1)[C@@H](C)O)C(=O)N1CCC[C@H]1C(=O)N[C@@H](CO)C(=O)N[C@@H](CO)C(=O)N[C@H](C(=O)N[C@@H](CC(N)=O)C(=O)N[C@H](C(=O)NCC(=O)N[C@@H](CO)C(=O)N[C@@H](CC(N)=O)C(=O)N[C@H](C(=O)N[C@@H](Cc1ccc(O)cc1)C(N)=O)[C@@H](C)O)C(C)C)[C@@H](C)O
notes: also called 83; compound 83

This assay deals with T1, human amylin receptor (amylin 3(a) receptor: human calcitonin receptor with RAMP-3) (human, UniProt P30988 25-474; O60896 24-148).
T1 construct: whole, on cells; also called hAmylin-R; hAmylinR
T1 sequence (looked up) 1: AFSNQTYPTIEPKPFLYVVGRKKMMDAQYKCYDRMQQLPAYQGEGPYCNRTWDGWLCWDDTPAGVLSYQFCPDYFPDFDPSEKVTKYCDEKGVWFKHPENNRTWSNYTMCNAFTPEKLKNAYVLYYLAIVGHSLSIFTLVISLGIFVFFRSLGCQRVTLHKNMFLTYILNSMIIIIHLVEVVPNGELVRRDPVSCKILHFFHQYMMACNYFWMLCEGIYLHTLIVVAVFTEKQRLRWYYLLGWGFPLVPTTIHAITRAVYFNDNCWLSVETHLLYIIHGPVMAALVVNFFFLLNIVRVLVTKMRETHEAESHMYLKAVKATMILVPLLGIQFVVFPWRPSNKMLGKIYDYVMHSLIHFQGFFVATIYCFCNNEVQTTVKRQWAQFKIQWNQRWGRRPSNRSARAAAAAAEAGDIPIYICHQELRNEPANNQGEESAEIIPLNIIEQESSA
T1 sequence (looked up) 2: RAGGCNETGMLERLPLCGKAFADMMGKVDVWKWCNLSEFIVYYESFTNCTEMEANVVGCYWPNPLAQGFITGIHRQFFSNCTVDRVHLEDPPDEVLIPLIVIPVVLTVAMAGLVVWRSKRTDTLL
As to the kind of experiment: SPA displacement of 125I-rat amylin, hAmylin 3(a) receptor membranes. The essentials:
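One-site competition analysis of SPA counts yielded IC₅₀ as a measure of affinity. Membranes were at 35 ng/μL final; incubation was 120 min at 25° C, pH 7.4.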
In general terms: In a radioligand displacement assay an active substance lowers the binding of a labelled ligand.
On to B1, for which the IC50 is 0.825 nM.

Take B2: the concentration for half-maximal inhibition (IC50) was 0.79 nM.

In the case of B3, the IC50 came out at 0.428 nM.

As to B4, the IC50 came to 0.649 nM.

On to B5, for which the IC50 amounted to 0.837 nM.

Take B6: the half-inhibitory concentration (IC50) worked out at 0.939 nM.
